Measurements reported in patent US20210061908A1 (IOMX THERAPEUTICS, published 2021).
Numbering of substitutions follows the chain as printed. Where two headings read alike, the source gives them in different places. Blank lines part the entries; values can stand above or below the binder they belong to.

Tests used:
[1] = target: T1, extracellular domain (ECD) of human IGSF11 (VSIG3), HIS-tagged (human, UniProt Q5DX21 23-241, biotinylated in the ELISA of Example 4 (site not stated)); test: ELISA, coated IGSF11-HIS, IgG1 format; EC50 grade (* >1 nM, ** 0.05-1 nM, *** 0.02-0.05 nM, **** <0.02 nM)
T1 construct: also called HIS-IGSF11; IGSF11-HIS; not shown: HIS6 tag
T1 sequence: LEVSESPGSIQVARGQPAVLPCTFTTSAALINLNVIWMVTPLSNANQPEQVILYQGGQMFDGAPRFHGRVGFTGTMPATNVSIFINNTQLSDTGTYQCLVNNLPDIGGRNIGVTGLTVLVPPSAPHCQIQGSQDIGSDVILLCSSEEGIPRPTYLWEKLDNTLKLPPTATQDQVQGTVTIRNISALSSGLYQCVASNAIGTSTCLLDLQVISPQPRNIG

[2] = target: T2, IGSF11 (VSIG3), construct used in SPR and BLI not stated (UniProt Q5DX21 23-241, limits assumed); test: SPR (Biacore), IgG1 format; IGSF11 construct not stated
T2 sequence (looked up): T1 sequence

[3] = target: T3, human IGSF11 (VSIG3) expressed on the surface of cells (human, UniProt Q5DX21 23-431); test: FACS, IgG1 format, DMS 273 cells
T3 construct: one molecule for all cell lines; the cell line is named under assay; also called IGSF11-expressing cells; HEK-OE
T3 sequence: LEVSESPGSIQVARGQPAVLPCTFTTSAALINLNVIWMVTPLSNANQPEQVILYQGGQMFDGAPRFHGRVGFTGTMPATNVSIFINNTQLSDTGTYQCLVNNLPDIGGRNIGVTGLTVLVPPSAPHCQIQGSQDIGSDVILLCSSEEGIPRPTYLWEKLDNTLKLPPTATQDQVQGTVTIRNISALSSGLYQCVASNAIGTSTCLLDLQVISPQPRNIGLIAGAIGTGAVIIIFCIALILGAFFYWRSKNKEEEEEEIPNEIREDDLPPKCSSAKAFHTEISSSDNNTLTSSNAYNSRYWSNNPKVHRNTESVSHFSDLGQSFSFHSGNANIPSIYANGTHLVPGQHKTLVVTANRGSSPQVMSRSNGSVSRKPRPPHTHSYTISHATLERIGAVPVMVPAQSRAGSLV

[4] = target: T3, human IGSF11 (VSIG3) expressed on the …; test: FACS, IgG1 format, recombinant HEK cells expressing IGSF11 (HEK-OE)
[5] = target: T3, human IGSF11 (VSIG3) expressed on the …; test: FACS on M579-A2-luc cells treated with IGSF11 siRNA (KD: target knocked down, specificity control)
[6] = target: T3, human IGSF11 (VSIG3) expressed on the …; test: FACS on DMS 273 cells treated with IGSF11 siRNA (KD: target knocked down, specificity control)
[7] = target: T3, human IGSF11 (VSIG3) expressed on the …; test: FACS on M579-A2-luc cells treated with scrambled control siRNA (SC)
CL-11 (C) [8] = test: FACS on CL-11 cells (do not express IGSF11; negative cell line) treated with scrambled control siRNA (SC)
CL-11 (C) [9] = test: FACS on CL-11 cells (do not express IGSF11; negative cell line) treated with IGSF11 siRNA (KD)
[10] = target: T3, human IGSF11 (VSIG3) expressed on the …; test: FACS on DMS 273 cells treated with scrambled control siRNA (SC)
[11] = target: T2, IGSF11 (VSIG3), construct used in SPR …; test: BLI (Octet), IgG1 format; IGSF11 construct not stated
[12] = target: T1, extracellular domain (ECD) of human …; test: ELISA: IGSF11-HIS coated, IgG1 antibody titrated, anti-human antibody-HRP and TMB; X-axis nM and Y-axis absorbance per legend paragraph 30
[13] = target: T1, extracellular domain (ECD) of human …; test: blocking ELISA (Example 5): IgG titrated and pre-incubated with 200 nM his-tagged IGSF11 ECD, complexes added to immobilised VSIR-Fc, bound IGSF11 detected with anti-hexahistidine-HRP; blocked ligand: VSIR-Fc
[14] = target: T1, extracellular domain (ECD) of human …; test: as above; remark: listed apart in the source

EC50 [1]: 0.02 to 0.05 nM
Kd [2]: > 500 nM
EC50 [3]: < 10 nM
B1: A-024 (human IgG1 format) (antibody, V domains shown)
VH: QMQLVQSGAEVKKPGSSVKVSCKASGGTFSSYAISWVRQAPGQGLEWMGWISAYNGNTNYAQKLQGRVTMTTDTSTSTAYMELRSLRSDDTAVYYCASLGSYGYTGAFDIWGQGTMATVSS
VL: QSALTQPASVSGSPGQSITISCTGTSSDVGGYNYVSWYQQHPGKAPKLMIYEVSNRPSGVSNRFSGSKSGNTASLTISGLQAEDEADYYCSSYTSSSTLVVFGGGTKLTVL

EC50 [4]: 10 to 50 nM
EC50 [1]: < 0.02 nM
EC50 [3]: 10 to 50 nM
B2: A-022 (human IgG1 format) (antibody, V domains shown)
VH: EVQLLESGPGLVKPSQTLSLTCTVSGGSISSGGYYWSWIRQHPGKGLEWIGYIYYSGSTYYNPSLKSRVTISVDTSKNQFSLKLSSVTAADTAVYYCARASRSTDYYFDYWGQGTLVTVSS
VL: QPGLTQPPSMSYGLGQTATLTCTGNRNNIGDQGAAWLQQHQGHPPKLLSYRNNNGPSGISERLSASRSGNTASLTISGLQPEDEADYYCSAWDSSLRAWVFGGGTKLTVL
notes: human IgG1 format

EC50 [4]: > 10 nM
percentage binding [5]: 9.15%
percentage binding [6]: 34.2%
percentage binding [7]: 65.6%
EC50 [1]: < 0.02 nM
percentage binding (CL-11 (C) [8]): 8.88%
percentage binding (CL-11 (C) [9]): 13.2%
percentage binding [10]: 82.3%
EC50 [3]: > 10 nM
B3: A-007 (human IgG1 format) (antibody, V domains shown)
VH: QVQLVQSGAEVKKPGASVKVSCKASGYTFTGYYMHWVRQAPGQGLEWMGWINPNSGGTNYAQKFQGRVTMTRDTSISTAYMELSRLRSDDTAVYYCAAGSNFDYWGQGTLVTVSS
VL: QSALTQPASVSGSPGQSITIACTGSSSDIGSFSYVSWYQQRPGKAPTLIIYGVNNRPLGVSRRFSGSKSGNTASLSISGLQAEDEADYYCSSYTRRSTVIFGGGTKLTVL
notes: human IgG1 format

EC50 [1]: 0.05 to 1 nM
Kd [2]: 250 to 500 nM
B4: A-034 (human IgG1 format) (antibody, V domains shown)
VH: QMQLVQSGGGLVKPGGSLRLSCAASGFTFSSYTMNWVRQAPGKGLEWVSSISSIGTYIYYADSVKGRFTISRDNAKNSLYLQMNSLRAEDTAVYYCARVLLSGSYYGYFDSWGQGTLVTVSS
VL: QSVLTQPPSVSGAPGQRVTISCTGSSSNIGAGYDVHWYQQLPGTAPKLFIYGNSNRPSGVPDRFSGSKSGTSASLAITGLQAEDEADYYCQSYDSSLSGYVFGTGTKVTVL
notes: human IgG1 format

EC50 [4]: 10 to 50 nM
percentage binding [5]: 2.59%
percentage binding [6]: 5.72%
percentage binding [7]: 75.3%
EC50 [1]: < 0.02 nM
Kd [2]: 250 to 500 nM
Kd [11]: 1 to 10 nM
percentage binding (CL-11 (C) [8]): 2.31%
percentage binding (CL-11 (C) [9]): 3.04%
percentage binding [10]: 81.1%
EC50 [3]: > 50 nM
B5: A-006 (human IgG1 format) (antibody, V domains shown)
VH: EVQLVESGGGLIQPGGSLRLSCAASGFTVSSNYMSWVRQAPGKGLEWVSVIYSGGSTYYADSVKGRFTISRDNSKNTLYLQMNSLRAEDTAVYYCARGNPYYYGDLQVNFDYWGQGTLVTVSS
VL: QAVVTQEPSLTVSPGGTVTLTCASSTGAVTSGYYPNWFQQKPGQAPRPLIYSTSNKHSWTPARFSGSLLGGKAALTLSGVQPDDEAEYYCLLYYGGDWVFGGGTKLTVL
notes: human IgG1 format

EC50 (read off the curve) [12]: ~0.01 nM
IC50 (read off the curve) [13]: ~2 nM
B6: B-005 (chain-swapped, human IgG1 format) (antibody, V domains shown)
VH: B5 VH with V5L, A24V
VL: B5 VL with L20P, A23G, Y33N, Y34L, P48A, F64I, D83E, D97A
notes: VH of A-012 with VL of A-002; IgG1 format; also called B5; Chains-B-005

IC50 (read off the curve) [14]: ~3 nM
B7: B-007 (chain-swapped, human IgG1 format) (antibody, V domains shown)
VH: B5 VH
VL: B5 VL with G32A, P48A, D83E, E87D, D97A
notes: VH of A-006 with VL of A-013; IgG1 format; also called B7; Chains-B-007

EC50 (read off the curve) [12]: ~0.009 nM
IC50 (read off the curve) [13]: ~2 nM
B8: B-003 (chain-swapped, human IgG1 format) (antibody, V domains shown)
VH: B5 VH with V5L, A24V
VL: B5 VL with G16E, K41R, P48A, H57D, D83E, D97A
notes: VH of A-012 with VL of A-005; IgG1 format; also called B3; Chains-B-003

EC50 [4]: 10 to 50 nM
EC50 [1]: < 0.02 nM
Kd [2]: 100 to 250 nM
EC50 [3]: > 50 nM
B9: A-013 (human IgG1 format) (antibody, V domains shown)
VH: B5 VH
VL: B5 VL with G32A, P48A, D83E, E87D, D97A
notes: human IgG1 format

EC50 [4]: 10 to 50 nM
percentage binding [5]: 2.35%
percentage binding [6]: 4.77%
percentage binding [7]: 65.4%
EC50 [1]: 0.02 to 0.05 nM
EC50 (read off the curve) [12]: ~0.008 nM
Kd [2]: 250 to 500 nM
Kd [11]: 1 to 10 nM
percentage binding (CL-11 (C) [8]): 5.11%
percentage binding (CL-11 (C) [9]): 3.93%
percentage binding [10]: 75.8%
EC50 [3]: 10 to 50 nM
IC50 (read off the curve) [13]: ~2 nM
B10: A-012 (human IgG1 format) (antibody, V domains shown)
VH: B5 VH with V5L, A24V
VL: B5 VL with P48A, D83E, D97A
notes: human IgG1 format

IC50 (read off the curve) [14]: ~4 nM
B11: B-008 (chain-swapped, human IgG1 format) (antibody, V domains shown)
VH: B5 VH
VL: B5 VL with L20P, A23G, Y33N, Y34L, P48A, F64I, D83E, D97A
notes: VH of A-006 with VL of A-002; IgG1 format; also called B8; Chains-B-008

EC50 [4]: > 50 nM
percentage binding [5]: 2.41%
percentage binding [6]: 3.4%
percentage binding [7]: 2.05%
EC50 [1]: < 0.02 nM
Kd [2]: 250 to 500 nM
Kd [11]: 10 to 20 nM
percentage binding (CL-11 (C) [8]): 2.87%
percentage binding (CL-11 (C) [9]): 4.86%
percentage binding [10]: 6.95%
B12: A-011 (human IgG1 format) (antibody, V domains shown)
VH: QVQLVESGGGVVQPGRSLRLSCAASGFTFSSYAMHWVRQAPGKGLEWVAVISYDGSNKYYADSVKGRFTISRDNSKNTLYLQMNSLRAEDTAVYYCAEGGALNYYGMDVWGQGTTVTVSS
VL: SSELTQDPGVSVALGQTVRITCQGDSLRHFYATWYQQKPGQAPILVIYGKNNRPSGIPDRFSGSSSEDTASLTITGAQAEDEADYYCQSRDPRNNHLIFGGGTKLIVL
notes: human IgG1 format
